Results on 1 substance are retold here after article PMC11220700, “Activation and Purification of ß‐Glucocerebrosidase by Exploiting its Transporter LIMP‐2 – Implications for Novel Treatment Strategies in Gaucher's and Parkinson's Disease” (Advanced Science, 2024).

This test deals with imiglucerase/Cerezyme (recombinant GCase, Sanofi Genzyme) (Homo sapiens) (UniProt P04062). Kind of test: MST. To be noted: Fc fusion.
imiglucerase/Cerezyme (recombinant GCase, Sanofi Genzyme) (Homo sapiens), sequence (P04062 other isoform, or with tags, fused parts or gaps): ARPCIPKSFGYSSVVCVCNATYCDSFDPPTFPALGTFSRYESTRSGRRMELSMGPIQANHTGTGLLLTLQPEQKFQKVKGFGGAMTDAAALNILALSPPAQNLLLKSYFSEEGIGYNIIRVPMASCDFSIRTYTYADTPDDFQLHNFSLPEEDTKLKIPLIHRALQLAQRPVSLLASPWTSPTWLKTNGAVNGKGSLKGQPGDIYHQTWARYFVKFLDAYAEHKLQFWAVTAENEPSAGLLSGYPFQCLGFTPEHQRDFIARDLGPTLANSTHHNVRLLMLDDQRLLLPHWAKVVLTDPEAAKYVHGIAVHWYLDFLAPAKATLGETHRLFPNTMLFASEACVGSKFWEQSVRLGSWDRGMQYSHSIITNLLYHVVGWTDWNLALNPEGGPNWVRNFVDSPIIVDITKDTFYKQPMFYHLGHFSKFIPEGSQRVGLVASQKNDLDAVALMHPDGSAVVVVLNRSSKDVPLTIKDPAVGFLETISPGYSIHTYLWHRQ

sLIMP‐2‐FC (Sino Biological #11063‐H03H), sequence (Q14108 27-432): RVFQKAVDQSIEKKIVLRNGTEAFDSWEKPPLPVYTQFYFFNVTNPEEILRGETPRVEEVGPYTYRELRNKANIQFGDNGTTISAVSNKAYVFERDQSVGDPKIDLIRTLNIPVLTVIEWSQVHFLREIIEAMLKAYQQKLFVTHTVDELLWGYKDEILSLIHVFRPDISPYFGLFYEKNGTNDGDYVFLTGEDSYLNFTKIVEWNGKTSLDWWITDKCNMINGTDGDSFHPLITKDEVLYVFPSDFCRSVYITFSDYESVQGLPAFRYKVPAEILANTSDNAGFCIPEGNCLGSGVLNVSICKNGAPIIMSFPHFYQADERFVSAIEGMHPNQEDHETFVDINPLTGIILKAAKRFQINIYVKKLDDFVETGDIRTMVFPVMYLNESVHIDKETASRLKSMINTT

With “sLIMP‐2‐FC (Sino Biological #11063‐H03H)”, the Kd (commonly the free concentration of one partner at which half of the binding sites on the other are occupied at equilibrium, for simple one-to-one binding) is 1.38 µM.
